Results on eight sequences are retold here after the DeepSol protein solubility set.

This series is described as follows: soluble on expression in E. coli; label from the status in PepcDB or PDB records.
Take “MERILEKVRAKSEIPVYDKSIENVLSAILTTNDFWKIVDLSEEPLPLVADIIRILEEEGLVKISNGIEFTEKGNEFIKSYGIGAKDNSVCECCEGRGVSLKNYQDLLERFKEIVKNRPMPKHEYDQGFVTPECTISRIALMNSRGDLFNKDVLVLGDDDLTSIALMLSNLPKKIVVVDIDDRLINFIKEVAEQLNYKNIEVITLDLRKPLPEKYSRAFDTFITDPPETVYAVKTFIGRGISALKGERRAGYFGITRRESSLDKWREIQRTLINDFNVVITDIIRNFNHYVNWGYEEETRAWKLAPVKKKPEDIWYKSYMFRIETLKDSRGFEEEVDVGDELYNDAESSTT”: the “soluble on expression in E. coli” value is reported as “not soluble”.
To “MAHHHHHHMQRHSRRGLLKYLSGVRVEYGGSAAKLLDSYLHQDAGAKHAANLPVSQRYFYIKNRNNDASLSSATGASQQHQTVQLRLGAAQMLSSSQHTSIDNLNEAHPLYYAQTSPSAAGLAAPLVLALKRLRIRQLTALQGALVPLLLKGKHVIAHSETGTGKSFGIALALANRIIRDQLNYRLHTVVLVPTEELALQYDKWLRHFGGCTSQVVQVAIDSIPLEAQLAKLHNIQPHVLVGTPQRVAEIVRLSPSILGEKLRRKVDCVVLDEADMIIHANVVYGRQQLSGANLVDRLFRNRREEVPAQLVAASATVDGVTAQTLNTWTRNDRTVRLTTSFVEHTIPPTIQFYFFGASRAYPLERCLLLSLQLICTQRPDARILIFTEDERVAEVCTLLTSAEVEGEMRRIAPGALSSTKVFAGALHALPRSIPSADNKESHGPDNPVSHRRVPLTTATQQAAPFSAIRGSGNVYEDVRAHQVIRQHGDVYVKNNSSLSRLNEGKLVVGVGSFNSSRGLHVNGITHVILYGACPSAACFVHCAGRTGRMGAEGDVLVLYPPSSGRQVQQVCSSLEVPFHSSRMSAVEDLLRSGEARTTESAAGAVTESASGAAADNT” belongs “not soluble”.
Regarding “MGSDKIHHHHHHMRENKVVYGLIGYGGMGRWHTEILSNVPEAVIGGIYDIKEEKREEAKAKGFSVYETEEAMLADSDIDVVLIATPNDCHKPIAIRAMHAGKNVISEKPVTLSSADLLEMEKVAKETGKLFTVHQNRRWDDDFLIIKKLVEEQKLGHVFRIESRVHGSRGIPGDWRKEKVHGGGMVLDWGVHLLDQILYMYGDRKIETVYASLTNITNQEVDDGFTAILTFEGGTEVLVEVGTNNYISLPRWYVLGKDGTAVIRDWQLTGEIIRKTGKTEETVIPVKTAAGLTKTMAPRREDTIVKEDLPKVSGDIADFHRNVVAVIRDGAEPEIKLFQVMRVMKLMEAIFQAAETKQVIEFQDQV”, the “soluble on expression in E. coli” value is on record as “not soluble”.
In the case of “MAEAESVSVDGWDFSWLDGRATEQRPSWGYQRLMGERLARANAALDIQTGGGEVLAGAMTMPPVMVATESWPPNVAKATALLHPLGAVVVADADEPPLPFAEGAFDLVTSRHPATVWWDEIARVLRPGGTYFSQHVGHASVFELVEYFLGPQPTRPASSSRPANAADSAHRLRPVEGLPDDVGVPGVLGGLPDDVEQDPARGPA” it was “not soluble”; in that of “NMRQVLKTDRLVLEPQSMARFDQWFAMERQRDEAGHRDLTEDQAWLRLCARQGMWDAYACGFYYLLDPVSGEMRGEAGFQFRRRGFGPGFDNHPEAAWAVASAHQGRGLAAEAMQALLAHHDRSSGRQRVVALIARSNLPSLRLAERLG”, “not soluble”.
In the case of “MDQTIHHQIQQALHFRTAVRVYKEEKISDEDLALILDAAWLSPSSIGLEGWRFVVLDNKPIKEEIKPFAWGAQYQLETASHFILLIAEKHARYDSPAIKNSLLRRGIKEGDGLNSRLKLYESFQKEDMDMADNPRALFDWTAKQTYIALGNMMMTAALLGIDTCPIEGFHYDKVNHILAKHNVIDLEKEGIASMLSLGYRLRDPKHAQVRKPKEEVISVVK” it was “soluble”; in that of “MITMPKLFIYHANQCNPKKCTSLKMAKMNKAILLKNPYKVPKNSLILNPYAEKALSPEDKEIVEKFGITALDCSWKEAELMFKKFKFKNQRSLPFLVACNPINYGKPCMLSTLEAFIAALYITNFKDEAWDLTSCFKWAETFIKVNYELLERYSNAKNSMEVVEIQQDFLRKLEHHHHHH”, “soluble”; in that of “MGSDKIHHHHHHEAKGHQTVKIDTVVSADKQTFLQFPGKVKAAQDISLAFRVSGTISKIHVKDGARVQEGQLLAELDPTDYQVQLDATEAEYQQIKAEAERVMALYKDNGTTPNANDKAVYGLKQITAKYKHHKDQLAYTRLYAPFNGYVQKRLFEAHETIGAGMPVIAMISGGTPEVEINLPAAEYIRREQFDNYHCTFDIYPGETYPLKLISVTPKANANQLYTMRLQVVPGTRAIPSPGMNTMVTILCRTEQENTLSVPTGAILQKEGKAYVFVFHPSSNTVHRQEVSILRLLNNGHSLITSRQLQPGEQIVSSGVHHIEDGEIVKPLSPVTNTNIGGLL”, “not soluble”.
